From patent US20140057847A1

Biological target: rat growth hormone releasing hormone receptor (rat) (UniProt Q02644)
Test: radioligand competition binding of radioiodinated JV-1-42 to membrane fractions of ischemic rat heart

Chain of UniProt Q02644 (Q02644 23-464): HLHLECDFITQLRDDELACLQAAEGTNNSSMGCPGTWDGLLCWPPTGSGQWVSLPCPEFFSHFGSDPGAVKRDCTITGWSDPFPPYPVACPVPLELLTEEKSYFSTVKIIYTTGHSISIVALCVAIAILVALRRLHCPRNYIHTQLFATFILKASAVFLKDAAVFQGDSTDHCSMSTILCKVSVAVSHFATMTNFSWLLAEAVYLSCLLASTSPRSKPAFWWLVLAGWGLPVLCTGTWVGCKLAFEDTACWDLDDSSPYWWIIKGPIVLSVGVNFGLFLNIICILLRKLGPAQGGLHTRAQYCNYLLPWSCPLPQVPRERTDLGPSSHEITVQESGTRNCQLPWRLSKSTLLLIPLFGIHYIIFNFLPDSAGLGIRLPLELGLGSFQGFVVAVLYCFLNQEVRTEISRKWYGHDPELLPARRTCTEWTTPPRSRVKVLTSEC

Substance: GHRH antagonist JV-1-42 (radioiodinated) (peptide)
- Bmax (fmol/mg protein): 51.3
- Kd: 0.86 nM
